Experiment in all cases: FRET or BRET
Series [1] deals with wild-type FUS tagged with mVenus-mCherry at the C terminus (FUS-VC) (UniProt P35637).
Series [2] concerns the target mutant Huntingtin exon1 with 54 glutamines, fused to mVenus-mCherry (Q54-VC).
Series [3] concerns the target mutant Huntingtin exon1 (mHttex1) with a polyglutamine stretch of Q71, fused to mVenus-mCherry (Q71-VC).
In series [4] the target is mutant Huntingtin exon1 with 39 glutamines, fused to mVenus-mCherry (Q39-VC).
The series “FRET or BRET” deals with the molecule itself.

This note sets out measurements from PMC8960284 (Cell Reports Methods, 2022).

With “wild-type FUS tagged with mVenus-mCherry at the C terminus (FUS-VC) (from UniProt P35637 1-526) (natural protein)”, the increase of FRET/donor ratio in foci over the dispersed state in series [1] was found to be 0.06.
For “mutant Huntingtin exon1 with 54 glutamines, fused to mVenus-mCherry (Q54-VC) (domain or fragment)”, the FRET/donor ratio of the final foci in series [2] was 1.53.
Regarding “mutant Huntingtin exon1 (mHttex1) with a polyglutamine stretch of Q71, fused to mVenus-mCherry (Q71-VC) (domain or fragment)”, in series [3], the FRET/donor ratio in foci fell in the range of 1.3 to 1.4 and the FRET/donor ratio of the final foci stood at 1.48.
Take “mutant Huntingtin exon1 with 39 glutamines, fused to mVenus-mCherry (Q39-VC) (domain or fragment)”: the FRET/donor ratio of the final foci in series [4] was found to be 1.6.

B1: FUS R521C tagged with mVenus-mCherry at the N terminus (VC-FUS_(R521C)) (natural protein)
chain: MASNDYTQQATQSYGAYPTQPGQGYSQQSSQPYGQQSYSGYSQSTDTSGYGQSSYSSYGQSQNTGYGTQSTPQGYGSTGGYGSSQSSQSSYGQQSSYPGYGQQPAPSSTSGSYGSSSQSSSYGQPQSGSYSQQPSYGGQQQSYGQQQSYNPPQGYGQQNQYNSSSGGGGGGGGGGNYGQDQSSMSSGGGSGGGYGNQDQSGGGGSGGYGQQDRGGRGRGGSGGGGGGGGGGYNRSSGGYEPRGRGGGRGGRGGMGGSDRGGFNKFGGPRDQGSRHDSEQDNSDNNTIFVQGLGENVTIESVADYFKQIGIIKTNKKTGQPMINLYTDRETGKLKGEATVSFDDPPSAKAAIDWFDGKEFSGNPIKVSFATRRADFNRGGGNGRGGRGRGGPMGRGGYGGGGSGGGGRGGFPSGGGGGGGQQRAGDWKCPNPTCENMNFSWRNECNQCKAPKPDGPGGGPGGSHMGGNYGDDRRGGRGGYDRGGYRGRGGDRGGFRGGRGGGDRGGFGPGKMDSRGEHRQDCRERPY
For B1, the “increase of FRET/donor ratio in foci over the dispersed state” value in “FRET or BRET” is 0.15.
